This passage reports signal-to-noise ratio and signal over background (fold over background) results from patent publication US7312060.

The target of test [1] is APC segment 3 (amino acids 1098-1696), wild type, with N-terminal VSV-G tag and C-terminal P53-derived tag (Vesicular Stomatitis Virus; human) (UniProt P25054). The test can be described thus: HTS-PTT ELISA, 0.1 ul of translation mix per well. On the technique in general: ELISA stands for enzyme-linked immunosorbent assay.
Test [2] has the same target. In words: HTS-PTT ELISA on NeutrAvidin plate, alkaline phosphatase chemiluminescence.
Test [3] shares this target. In words: HTS-PTT ELISA on NeutrAvidin plate, HRP chemiluminescence.

UniProt P25054, sequence (P25054 other isoform, or with tags, fused parts or gaps limits assumed): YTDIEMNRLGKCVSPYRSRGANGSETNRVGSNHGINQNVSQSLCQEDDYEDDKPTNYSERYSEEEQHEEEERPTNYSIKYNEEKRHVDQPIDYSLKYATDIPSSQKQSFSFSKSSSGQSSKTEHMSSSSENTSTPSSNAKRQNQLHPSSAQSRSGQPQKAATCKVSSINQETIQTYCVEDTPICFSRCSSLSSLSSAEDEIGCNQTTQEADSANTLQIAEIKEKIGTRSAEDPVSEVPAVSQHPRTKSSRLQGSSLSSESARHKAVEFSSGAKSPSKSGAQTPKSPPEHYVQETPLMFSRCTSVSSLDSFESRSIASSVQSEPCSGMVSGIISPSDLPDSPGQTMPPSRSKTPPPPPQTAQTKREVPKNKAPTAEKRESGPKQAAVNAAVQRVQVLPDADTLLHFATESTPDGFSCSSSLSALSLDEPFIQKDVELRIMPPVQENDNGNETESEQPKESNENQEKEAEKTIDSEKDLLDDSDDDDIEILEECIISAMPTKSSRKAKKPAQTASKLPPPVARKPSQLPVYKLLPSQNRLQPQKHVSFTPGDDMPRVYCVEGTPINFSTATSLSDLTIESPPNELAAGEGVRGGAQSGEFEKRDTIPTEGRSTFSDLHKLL

As to “anti-p53-alkaline phosphatase (Santa Cruz Biotechnology) (antibody)”, the signal-to-noise ratio in test [1] is 30. The same substance showed a signal over background (fold over background) in test [2] of 100.

Regarding “anti-VSV-G-HRP (Roche Applied Sciences) (antibody)”, the signal-to-noise ratio in test [1] came to 10. Also, the signal over background (fold over background) in test [3] stood at 400.
